Source: paper doi:10.1101/2023.07.20.548338

Target: GLS1 (endogenous; both KGA and GAC, not told apart) (UniProt D3Z7P3)
Assay: IP of endogenous GLS1, PDZD8 blot
Settings: reference: wild-type PDZD8, glucose-starved cells; sites T527

binding against the reference: weaker
Substance: PDZD8 (from UniProt Q8NEN9) PDZD8-T527A, glucose-starved cells
